One experiment deals with HLA-A*29:02. The experiment can be described thus: IEDB peptide-MHC binding, purified MHC/competitive/radioactivity; filed as Kd, often an IC50 or EC50 that approximates it; ≥ and ≤ were set here for values at or beyond the usual limits of such assays.
The next experiment concerns the target HLA-A*23:01. The experiment is described as above.
The target in experiment [1] is HLA-A*24:02. The experiment is described as above.
The target of experiment [2] is HLA-A*26:01. Described as above.
For a further experiment, the target named is HLA-A*01:01. The experiment is described as above.
For a further experiment, the target named is HLA-A*30:02. The description is as above.
The next experiment deals with HLA-B*15:01. The experiment is described as above. As to conditions: source organism: Dengue virus 2 Jamaica/1409/1983.
The target of another experiment is HLA-B*07:02. Described as above. As to conditions: source organism: Dengue virus 2 Jamaica/1409/1983.
In experiment [3] the target is HLA-A*24:02. The experiment can be described thus: IEDB peptide-MHC binding, purified MHC/competitive/fluorescence; ≥ and ≤ were set here for values at or beyond the usual limits of such assays.
Another experiment deals with HLA-A*03:01. The experiment can be described thus: IEDB peptide-MHC binding, purified MHC/competitive/radioactivity; filed as Kd, often an IC50 or EC50 that approximates it; ≥ and ≤ were set here for values at or beyond the usual limits of such assays. The conditions noted are these: source organism: Vaccinia virus WR.
The target in a further experiment is HLA-A*68:01. Described as above. As to conditions: source organism: Vaccinia virus WR.
Another experiment has as its target HLA-A*31:01. The description is as above. As to conditions: source organism: Vaccinia virus WR.
A further experiment concerns the target HLA-A*11:01. The experiment is described as above. As to conditions: source organism: Vaccinia virus WR.
In a further experiment the target is HLA-A*33:01. Described as above. The conditions noted are these: source organism: Vaccinia virus WR.
In the next experiment the target is HLA-B*40:01. The experiment is described as above.
The target in a further experiment is HLA-A*02:01. Kind of experiment: IEDB peptide-MHC binding, purified MHC/competitive/fluorescence; ≥ and ≤ were set here for values at or beyond the usual limits of such assays. The conditions noted are these: source organism: Vaccinia virus.
Experiment [4] concerns the target HLA-A*26:01. Kind of experiment: IEDB peptide-MHC binding, purified MHC/direct/fluorescence; filed as Kd, often an IC50 or EC50 that approximates it; ≥ and ≤ were set here for values at or beyond the usual limits of such assays. As to conditions: source organism: West Nile virus.
Another experiment has as its target HLA-B*44:03. Kind of experiment: IEDB peptide-MHC binding, purified MHC/competitive/radioactivity; filed as Kd, often an IC50 or EC50 that approximates it; ≥ and ≤ were set here for values at or beyond the usual limits of such assays. The conditions noted are these: source organism: Dengue virus 3 Martinique/1243/1999.
Where [5] appears, read: source organism: Mammarenavirus lassaense.
The mark [6] stands for this setting: source organism: Dengue virus 2 Jamaica/1409/1983.
Where [7] appears, read: source organism: SARS coronavirus Tor2.
Setting [8] is: source organism: Mammarenavirus juninense.
Where [9] appears, read: source organism: Zaire ebolavirus.
Where [10] appears, read: source organism: Vaccinia virus WR.
Where [11] appears, read: source organism: Mammarenavirus whitewaterense.
Where [12] appears, read: source organism: Dengue virus 3 Martinique/1243/1999.

As for VPVHLCNLI, the dissociation constant Kd is at least 78.9 µM in the experiment with HLA-A*29:02 (setting [5]); 3.17 µM in the experiment with HLA-A*23:01 (setting [5]); 5.7 µM with HLA-A*24:02 [1] (setting [5]); at least 77.9 µM with HLA-A*26:01 [2] (setting [5]); at least 78.1 µM with HLA-A*01:01 (setting [5]); at least 47.9 µM with HLA-A*30:02 (setting [5]).

Turning to RSNAALGAIF, the Kd with HLA-B*15:01 came out at 0.0411 µM; with HLA-A*30:02 (setting [6]), 3.42 µM; with HLA-B*07:02 it was 0.184 µM.

For the sequence DSFKEELDKY, the Kd with HLA-A*29:02 (setting [7]) is 0.399 µM; in the experiment with HLA-A*23:01 (setting [7]) it was at least 70 µM; with HLA-A*24:02 [1] (setting [7]), at least 70.3 µM; with HLA-A*26:01 [2] (setting [7]) it was 0.416 µM; with HLA-A*01:01 (setting [7]), 0.754 µM; with HLA-A*30:02 (setting [7]), 0.299 µM.

Consider SYSLFDMSKF, for which the Kd in the experiment with HLA-A*29:02 (setting [7]) is 0.677 µM; in the experiment with HLA-A*23:01 (setting [7]) it was 0.0497 µM; in the experiment with HLA-A*26:01 [2] (setting [7]), 6.12 µM; with HLA-A*01:01 (setting [7]), at least 25.1 µM; in the experiment with HLA-A*30:02 (setting [7]), 0.77 µM.

In the case of SPMLYQLLE, in the experiment with HLA-A*24:02 [3] (source organism: Vaccinia virus Copenhagen), the IC50 turned out to be 64.6 µM. That is a double-digit micromolar value.

For RCWLIKNNSY, the Kd with HLA-A*29:02 (setting [8]) was at least 29.1 µM; with HLA-A*23:01 (setting [8]), at least 70 µM; in the experiment with HLA-A*24:02 [1] (setting [8]) it was at least 70.3 µM; in the experiment with HLA-A*26:01 [2] (setting [8]), at least 69.7 µM; with HLA-A*01:01 (setting [8]) it was at least 30.6 µM; with HLA-A*30:02 (setting [8]) it was 0.00991 µM.

The sequence IVNAQPKCN displayed a concentration for half-maximal inhibition (IC50) with HLA-A*24:02 [3] (setting [9]) of 8.88 µM.

As to LYNSTFFSTF, the Kd with HLA-A*29:02 (setting [7]) was determined as 0.622 µM; in the experiment with HLA-A*23:01 (setting [7]) it was 0.000965 µM; with HLA-A*24:02 [1] (setting [7]), 0.000635 µM; with HLA-A*26:01 [2] (setting [7]), 0.834 µM; with HLA-A*01:01 (setting [7]) it was 10.3 µM; with HLA-A*30:02 (setting [7]), 1.16 µM.

With GYQPYRVVVL, the Kd was 1.23 µM with HLA-A*29:02 (setting [7]); 0.0534 µM with HLA-A*23:01 (setting [7]); 0.201 µM in the experiment with HLA-A*24:02 [1] (setting [7]); at least 69.7 µM with HLA-A*26:01 [2] (setting [7]); at least 70.4 µM with HLA-A*01:01 (setting [7]); at least 78.9 µM with HLA-A*30:02 (setting [7]).

For ESRPFDLIKK, the Kd in the experiment with HLA-A*29:02 (setting [10]) is at least 71.4 µM; with HLA-A*03:01, 0.236 µM; with HLA-A*68:01 it was 0.00214 µM; with HLA-A*31:01, 0.257 µM; with HLA-A*11:01 it was 0.0742 µM; with HLA-A*33:01, 1 µM.

For the sequence LEENVEVEI, the Kd in the experiment with HLA-B*40:01 (setting [6]) was found to be 0.0109 µM.

MILPMSRAF registered an IC50 with HLA-A*24:02 [3] (source organism: Mus musculus) of 1.75 µM.

Turning to HISRQRLTKY, the Kd with HLA-A*29:02 (setting [7]) is 1.02 µM; with HLA-A*23:01 (setting [7]), at least 70 µM; with HLA-A*24:02 [1] (setting [7]), at least 70.3 µM; in the experiment with HLA-A*26:01 [2] (setting [7]), 1.16 µM; with HLA-A*01:01 (setting [7]), 12.1 µM; in the experiment with HLA-A*30:02 (setting [7]) it was 0.581 µM.

On to LGYCMIRWL, for which the IC50 in the experiment with HLA-A*24:02 [3] (setting [10]) was at least 78.9 µM.

On to TFSIPLGVI, for which the IC50 with HLA-A*24:02 [3] (setting [9]) was found to be 0.0849 µM.

For the sequence TRAADEPPL, the IC50 was at least 1400 µM with HLA-A*02:01 and at least 169 µM in the experiment with HLA-A*24:02 [3] (source organism: Vaccinia virus).

In turn, FVLALLAFF came in with a Kd with HLA-A*26:01 [4] of at least 20 µM.

In the case of EGCPKPHRL, the Kd in the experiment with HLA-A*29:02 (setting [11]) is at least 43.7 µM; with HLA-A*23:01 (setting [11]) it was at least 77.7 µM; with HLA-A*24:02 [1] (setting [11]), at least 46.8 µM; with HLA-A*26:01 [2] (setting [11]), at least 77.9 µM; in the experiment with HLA-A*01:01 (setting [11]) it was 13.9 µM; with HLA-A*30:02 (setting [11]) it was 12.4 µM.

As to VEDEEFWKL, the dissociation constant Kd in the experiment with HLA-B*40:01 (source organism: Dengue virus 3 Sri Lanka/1266/2000) was determined as 0.0181 µM.

For MCPFLFLAV, the equilibrium dissociation constant (Kd) with HLA-A*29:02 (setting [5]) is 1.69 µM; with HLA-A*23:01 (setting [5]), at least 51.1 µM; in the experiment with HLA-A*24:02 [1] (setting [5]), at least 77.5 µM; with HLA-A*26:01 [2] (setting [5]), at least 77.9 µM; with HLA-A*01:01 (setting [5]) it was 0.492 µM; with HLA-A*30:02 (setting [5]), at least 31.2 µM.

For MGLLCLTLF, in the experiment with HLA-A*23:01 (source organism: Dengue virus 4 Philippines/H241/1956), the Kd amounted to 0.451 µM.

In the experiment with HLA-A*24:02 [3] (source organism: Variola virus), ISHRPVVLT displayed a half-maximal inhibitory concentration (IC50) of 1.37 µM.

In the case of QWFFDLPLPW, the Kd with HLA-A*23:01 (setting [12]) worked out at 0.0147 µM; with HLA-B*44:03, 2.64 µM; with HLA-A*24:02 [1] (setting [12]), 0.0748 µM.

(Values after the Immune Epitope Database (IEDB).)
